Substitutions are numbered along the chain they refer to. Names and notes keep the numbering of the source.
B1: wild type NSP3 (non-structural protein 3) of simian species A rotavirus strain RRV (natural protein)
chain: MESTQQMASSIINSSFEAAVVAATSTLELMGIQYDYNEVYTRVKSKFDLVMDDSGVKNNLIGKAITIDQALNGKFSSAIRNRNWMTDSRTVAKLDEDVNKLRIMLSSKGIDQKMRVLNACFSVKRIPGKSSSIVKCTRLMKDKLERGEVEVDDSFVEEKMEVDTIDWKSRYEQLEKRFESLKHRVNEKYNHWVLKARKVNENMNSLQNVISQQQAHINELQMYNNKLERDLQSKIGSVVSSIEWYLRSMELSDDVKSDIEQQLNSIDQLNPVNAIDDFESILRNLISDYDRLFIMFKGLLQQCNYTYTYE
notes: also called wtNSP3; RRV NSP3
B2: NSP3 W170A of rotavirus strain RRV (natural protein)
chain: B1 chain with W167A
notes: also called vNSP3_(W170A)

Target: the molecule itself
Assay: non-dissociating Western blot (WB-ND); lysates of vaccinia-infected BSC-1 cells (18 hpi) mixed with 2x non-dissociating sample buffer (62.5 mM Tris-HCl pH 6.8, 0.8% SDS, 20% glycerol), 30 min on ice, not boiled; 12% SDS-PAGE in a cold room; blot with anti-NSP3 rat serum; stable dimer band (68 kDa) told apart from monomer/dimerization intermediate band (34 kDa); cells with MG132 or DMSO, in one experiment with …

| Protein | stoichiometry N | fold lower accumulation of stable dimers than NSP3_(Y192A) [fold] | fold lower accumulation of stable dimers than wtNSP3 [fold] |
| --- | --- | --- | --- |
| B1 | 2 | – | – |
| B2 | – | 16 | 9 |

From paper PMC5524322, “Species A rotavirus NSP3 acquires its translation inhibitory function prior to stable dimer formation” (PLoS ONE, 2017)
